Laboratory results as given in US20040120943.

Target: rabbit thrombomodulin (UniProt Q8HZ48)

In the case of variant thrombin W215A/E217A (WE), the “activity toward protein C on addition of thrombomodulin” value is reported as “the WE variant thrombin recovers almost its full activity toward protein C upon binding to thrombomodulin”.
